This is an account of results in patent US20230374534, “TRANSGENIC PLANT HAVING COLD RESISTANCE OVEREXPRESSING THIOREDOXIN TRX-H2 PROTEIN” (INDUSTRY-ACADEMIC COOPERATION FOUNDATION GYEONGSANG …, published 2023).

In one data set the target is CBF1 (Arabidopsis thaliana, UniProt P93835 SEQ:1-213). Kind of data set: EMSA; 1 mM DTT (reducing), poly(dI-dC), 25 C, 30 min; binding redox-dependent; gel only in figure. The note with it: tags: His (pET28a, E. coli); label: biotin. The protocol:
FIGS. 3A to 3D are the results of EMSAs showing the redox-dependent binding of His-CBF1 to biotin-labeled COR15a promoter fragment (oligoprobe) in the presence of 1 mM DTT (FIG. 3A), 1 mM H₂O₂ (FIG. 3B), and a Trx system comprising 5 μM Trx-h2 (FIG. 3C) or Trx-h2(C/S) (FIG. 3D) with His-MBP as a control. FIG. 3E is the schematic representation of the COR15a promoter. P1 and P2 indicate the primer binding sites for qRT-PCR. […] (FIG. 3F) or 4° C. (FIG. 3G) for 6 h.
To carry out EMSAs, a biotin-labeled oligonucleotide probe (Table 1) was processed using a lightshift™ chemiluminescent EMSA Kit (Thermo Fisher Scientific, Rockford, IL, USA). Recombinant CBF1 (5 μg) was incubated with 40 fmol of biotin-labeled probe and 20 μl of reaction mixture containing 25 ng/μl Poly (dl-dC) binding buffer at 25° C. for 30 min. The reaction products were resolved on a 6% polyacrylamide gels. Probes bound to CBF1 were transferred to charged Hybond-N membrane and detected by western blotting with anti-biotin antibody (Abcam, Cambridge, MA, USA).
(In general: A gel shift assay detects complexes by their altered migration in electrophoresis.)

In a further data set the target is MBP (control) (UniProt P0AEX9 P0AEX9:27-396). Nature of the data set: EMSA; His-MBP used as negative control; gel only in figure.

CBF1, sequence (P93835 whole entry, the tested form may be a part): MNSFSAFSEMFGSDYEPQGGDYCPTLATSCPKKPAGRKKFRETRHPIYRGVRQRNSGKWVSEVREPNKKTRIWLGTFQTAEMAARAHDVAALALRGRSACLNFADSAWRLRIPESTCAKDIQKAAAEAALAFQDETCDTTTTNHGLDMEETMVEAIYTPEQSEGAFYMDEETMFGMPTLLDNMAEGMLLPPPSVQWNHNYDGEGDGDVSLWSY

B1: COR15a promoter CRT/DRE probe (-275 to -253) (dsDNA)
DNA 1: ATTTCATGGCCGACCTGCTTTTT
DNA 2: AAAAAGCAGGTCGGCCATGAAAT
B1: the binding result was “binds” with CBF1 and “no binding” in the data set with MBP (control).
